Experimental findings from paper PMC5775921 (Chemical biology & drug design, 2017) are described below.

Ends that are not written are not given here.

One test concerns the target HER3 (UniProt P21860). The experiment in a line: SPR. Background: Surface plasmon resonance follows binding to a sensor surface in real time, without labels.
In test [1] the target is recombinant extracellular domain of EGFR protein (Homo sapiens, UniProt P00533). The experiment in a line: SPR binding to immobilized EGFR extracellular domain. The settings on record: peptide 0 to 200 μM as analyte.

Chain of HER3 (P21860 20-1342): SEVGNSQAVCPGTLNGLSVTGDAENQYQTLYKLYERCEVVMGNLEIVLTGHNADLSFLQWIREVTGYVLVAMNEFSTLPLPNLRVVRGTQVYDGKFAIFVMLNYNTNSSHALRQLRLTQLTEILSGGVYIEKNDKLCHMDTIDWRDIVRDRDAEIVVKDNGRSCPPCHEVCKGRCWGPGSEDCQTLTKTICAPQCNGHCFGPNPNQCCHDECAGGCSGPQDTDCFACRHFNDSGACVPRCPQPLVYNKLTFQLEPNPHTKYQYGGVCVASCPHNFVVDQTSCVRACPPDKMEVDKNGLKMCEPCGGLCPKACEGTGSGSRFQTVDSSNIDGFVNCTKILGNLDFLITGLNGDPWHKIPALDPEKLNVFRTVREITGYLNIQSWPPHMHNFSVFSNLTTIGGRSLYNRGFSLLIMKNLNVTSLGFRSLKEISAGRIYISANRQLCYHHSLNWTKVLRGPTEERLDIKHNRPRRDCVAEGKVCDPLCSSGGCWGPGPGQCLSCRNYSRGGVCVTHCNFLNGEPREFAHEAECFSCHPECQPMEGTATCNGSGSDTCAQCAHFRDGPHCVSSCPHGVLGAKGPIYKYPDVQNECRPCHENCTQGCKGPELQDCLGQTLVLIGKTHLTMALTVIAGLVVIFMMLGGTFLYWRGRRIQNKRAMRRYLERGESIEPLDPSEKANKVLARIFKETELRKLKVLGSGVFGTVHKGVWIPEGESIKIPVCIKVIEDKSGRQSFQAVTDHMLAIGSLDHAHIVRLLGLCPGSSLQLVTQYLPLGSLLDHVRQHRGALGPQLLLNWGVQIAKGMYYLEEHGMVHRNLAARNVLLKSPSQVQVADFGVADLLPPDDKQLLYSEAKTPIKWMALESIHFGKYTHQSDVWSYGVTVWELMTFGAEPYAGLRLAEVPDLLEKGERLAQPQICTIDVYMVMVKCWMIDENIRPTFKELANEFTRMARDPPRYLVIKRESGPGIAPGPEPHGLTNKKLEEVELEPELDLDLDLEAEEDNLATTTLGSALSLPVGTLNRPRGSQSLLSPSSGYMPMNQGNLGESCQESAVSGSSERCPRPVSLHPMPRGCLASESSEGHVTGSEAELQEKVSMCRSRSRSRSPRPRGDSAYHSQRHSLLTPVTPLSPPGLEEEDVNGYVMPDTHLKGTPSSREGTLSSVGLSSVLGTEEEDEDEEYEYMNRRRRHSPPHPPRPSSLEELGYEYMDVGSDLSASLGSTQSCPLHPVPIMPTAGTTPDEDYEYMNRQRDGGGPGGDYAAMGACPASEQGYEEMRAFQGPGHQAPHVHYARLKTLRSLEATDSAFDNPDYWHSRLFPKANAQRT

As usually defined, the Kd is the concentration at which binding is half-saturated. For the substance “Cyclo.L1.1: Cyclo(K(N3)larllt) (peptide)”, the Kd with HER3 stood at 50 µM.
Take “GLARLLT-CONH2 (GLARLLT-NH2) [Peptide L1.6]”: the “binding to EGFR as seen by SPR” value in test [1] is recorded as “exhibited binding to the EGFR protein in a concentration-dependent manner”.
For tllarl-CONH2 [Peptide L1.3], the “binding to EGFR as seen by SPR” value in test [1] is reported as “exhibited binding to the EGFR protein in a concentration-dependent manner”.
